Experimental data: patent publication US7524668 (ELAN PHARMACEUTICALS, dated 2009)
Non-standard residues stand in square brackets, D forms with d. No end group written: not given here. Sta = CC(C)C[C@H](N)[C@@H](O)CC(=O)O

What was measured:
[1] = molecular target: T1, CHO cell expressed recombinant human beta secretase proteolytically cleaved with HIV protease (human, UniProt P56817 61-453); test: affinity chromatography on peptide-coupled resin
T1 construct: N-terminus at V40 after cleavage of the F39-V40 bond; also called HIV-1 protease treated beta secretase; HIV protease treated CHO produced beta secretase
T1 sequence (P56817 other isoform, or with tags, fused parts or gaps limits assumed): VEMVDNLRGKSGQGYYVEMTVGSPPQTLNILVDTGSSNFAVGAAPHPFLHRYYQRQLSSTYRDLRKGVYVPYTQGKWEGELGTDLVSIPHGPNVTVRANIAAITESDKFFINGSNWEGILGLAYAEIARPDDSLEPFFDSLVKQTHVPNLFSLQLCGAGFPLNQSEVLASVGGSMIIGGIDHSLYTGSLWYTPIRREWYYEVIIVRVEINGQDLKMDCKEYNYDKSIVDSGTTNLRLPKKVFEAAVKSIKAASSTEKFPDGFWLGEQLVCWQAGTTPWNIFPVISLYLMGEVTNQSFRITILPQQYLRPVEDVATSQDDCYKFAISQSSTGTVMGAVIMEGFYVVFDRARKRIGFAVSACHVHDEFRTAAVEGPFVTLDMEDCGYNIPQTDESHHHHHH

[2] = molecular target: T2, pET11a-T7.Tag-Gly-Ser-Met-(A-GV...QTDES) E. coli expressed recombinant human BACE (human, UniProt P56817 14-453); test: affinity chromatography on peptide-coupled resin, bound at pH 4.5, eluted at pH 8.5
T2 construct: The construct carries an N-terminal T7 tag; also called pET11a-BACE; beta secretase
T2 sequence (P56817 other isoform, or with tags, fused parts or gaps limits assumed): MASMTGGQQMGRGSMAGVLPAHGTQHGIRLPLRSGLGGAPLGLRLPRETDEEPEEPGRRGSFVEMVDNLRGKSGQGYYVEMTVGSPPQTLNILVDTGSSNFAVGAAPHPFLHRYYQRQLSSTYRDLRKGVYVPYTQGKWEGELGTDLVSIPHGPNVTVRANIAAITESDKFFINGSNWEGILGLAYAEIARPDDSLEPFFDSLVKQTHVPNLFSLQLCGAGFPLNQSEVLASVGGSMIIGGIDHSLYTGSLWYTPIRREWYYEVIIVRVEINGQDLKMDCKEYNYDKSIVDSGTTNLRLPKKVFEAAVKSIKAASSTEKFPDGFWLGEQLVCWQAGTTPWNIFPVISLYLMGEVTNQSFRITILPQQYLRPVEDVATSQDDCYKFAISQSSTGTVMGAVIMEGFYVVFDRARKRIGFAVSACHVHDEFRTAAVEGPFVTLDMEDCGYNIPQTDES

[3] = molecular target: T3, pQE80L-Met-Arg-Gly-Ser-(His)6-Gly-Ser-Ile-Glu-Thr-Asp-(TQH...QTDES) E. coli expressed recombinant human BACE (human, UniProt P56817 22-453); test: as above
T3 construct: N-terminal His6 tag is part of the construct; also called pQE80L-BACE; pQE-80-BACE
T3 sequence (P56817 other isoform, or with tags, fused parts or gaps limits assumed): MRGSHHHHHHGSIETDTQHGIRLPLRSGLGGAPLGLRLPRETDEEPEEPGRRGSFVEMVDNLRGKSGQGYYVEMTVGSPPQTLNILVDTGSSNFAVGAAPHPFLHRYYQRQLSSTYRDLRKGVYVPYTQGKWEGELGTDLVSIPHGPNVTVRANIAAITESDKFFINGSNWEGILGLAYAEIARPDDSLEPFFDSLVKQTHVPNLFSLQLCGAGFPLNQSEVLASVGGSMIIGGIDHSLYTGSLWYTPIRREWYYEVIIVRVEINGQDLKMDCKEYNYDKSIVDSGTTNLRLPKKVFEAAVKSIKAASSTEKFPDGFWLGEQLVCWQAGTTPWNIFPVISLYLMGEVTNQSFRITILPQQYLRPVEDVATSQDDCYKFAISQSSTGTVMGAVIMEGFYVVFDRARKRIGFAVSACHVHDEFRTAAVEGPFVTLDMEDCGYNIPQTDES

[4] = molecular target: T4, pQE70-Met-Arg-Gly-Ser-Phe-Val-Glu-...Thr-Asp-Glu-Ser-Arg-Ser-(His)6 E. coli expressed recombinant human BACE (human, UniProt P56817 57-453); test: affinity chromatography on peptide-coupled resin, bound at acidic pH, eluted at pH 8.5
T4 construct: C-terminal His6 tag is part of the construct; also called pQE70-BACE
T4 sequence (P56817 other isoform, or with tags, fused parts or gaps limits assumed): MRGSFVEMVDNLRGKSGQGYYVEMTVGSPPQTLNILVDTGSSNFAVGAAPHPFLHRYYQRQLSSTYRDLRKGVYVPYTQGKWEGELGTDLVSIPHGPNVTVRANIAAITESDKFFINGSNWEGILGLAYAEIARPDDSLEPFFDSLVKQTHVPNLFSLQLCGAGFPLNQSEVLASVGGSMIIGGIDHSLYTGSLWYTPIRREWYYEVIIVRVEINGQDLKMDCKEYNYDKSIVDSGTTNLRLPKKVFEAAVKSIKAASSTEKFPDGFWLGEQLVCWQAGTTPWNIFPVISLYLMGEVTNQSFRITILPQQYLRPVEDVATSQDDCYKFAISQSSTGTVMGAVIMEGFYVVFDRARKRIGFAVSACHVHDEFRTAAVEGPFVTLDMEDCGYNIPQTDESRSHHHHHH
Description: Prior to purification, the pH of the refolded protein was lowered from about 10 to 8.5 with HCl. The solution was loaded onto three 50 ml Q-Sepharose columns (Pharmacia Biotech XK 50). The columns were pre-equilibrated in 0.4 M Urea, 10 mM AMPSO, pH 8.5. After refolded protein was loaded onto the columns, they were washed with 500 ml of 0.4 M Urea, 10 mM TRIS, pH 8.2. The columns were eluted with 180-245 ml of 0.75 M NaCl in 0.4 M Urea 10 mM TRIS buffer, pH 8.2. The eluates were then dialyzed versus 20 mM HEPES, pH 8.0. The samples were then removed from dialysis and dropped into 1 M NaMES, pH 5.7 (0.1 M final concentration). After centrifugation (20 Kxg) the supernatant was dropped into 1 M Na-acetate, 1 M NaMES, pH 5.0 (0.2 M Na-acetate, 0.28 M Na-MES was the final concentration). […] This solution was then applied to a 15 ml affinity column equilibrated at the same pH. The column was washed with 6 column volumes of 20 mM sodium acetate buffer pH 4.5, 150 mM NaCl. BACE was eluted at pH 8.5 using about 50 ml of 0.1 M borate buffer. […] Purified pQE70-BACE was dialyzed into 100 mM NaBorate pH 8.5.

Measured: binding result

SEVN[Sta]VAEFRGGC (also: coupled to Sulfolink resin via Cys) [synthetic peptide Ser-Glu-Val-Asn-Sta-Val-Ala-Glu-Phe-Arg-Gly-Gly-Cys (where Sta=statine)]
binds: all assays above
